Earlier results in article PMC4586518, “Melanin production through novel processing of proopiomelanocortin in the extracellular compartment of the auricular skin of C57BL/6 mice after UV-irradiation” (Scientific Reports, 2015).

How the values were obtained:
[1] = tested on: MC-1R
Source text: Melanin plays an important role in protecting skin after UV-irradiation. α-MSH is a major catalyst for melanogenesis in the skin following UV-irradiation. α-MSH-LI and ACTH-LI may be present in culture media of normal keratinocytes, fibroblasts, melanocytes, and their cell extracts. Although POMC and POMC-derived peptides such as ACTH and α-MSH are released from the intermedia of the pituitary, it is unlikely that pituitary secretions contribute to local pigmentation. In the present report, POMC-related peptides were detected in the UV-irradiated auricle ... || Structure-activity analyses of α-MSH have reported information on the essential sequence required for MC-1R binding and melanin production. […] However, Ac-His-Phe-Arg-Trp-NH2 had 400,000-fold less activity (EC50 20 μM) than α-MSH in a frog skin bioassay[31] and approximately 7,000-fold less activity (EC50 1 μM) in a lizard skin bioassay. Furthermore, the N-terminal region of α-MSH is ...

[2] = tested on: MC-1R; set-up: method as in 2 sources, ref 23 = [23]; PMID 17317724; doi:10.1096/fj.06-7398com; Rousseau K. et al. Proopiomelanocortin (POMC), the ACTH/melanocortin precursor, is secreted by human epidermal keratinocytes and melanocytes and stimulates melanogenesis . FASEB J 21 , 1844 – 1856 ( 2 ||| ref 34 = [34]; PMID 1556905; doi:10.1016/0024-3205(92)90347-r; Slominski. A. et al. Melanotropic activity of gamma MSH peptides in melanoma cells . Life Sci , 50 , 1103 – 1108 ( 1992 ). 1556905 10.1016/0024-3205(92)90347-r; settings: MC-1R
Source text: To clarify the mechanism of melanin production after UV-irradiation, we assessed the expression of POMC and POMC-derived peptides after UV-irradiation to the skin of the murine auricle.

B1: proopiomelanocortin (protein, UniProt P01189 1-267, looked up)
chain: MPRSCCSRSGALLLALLLQASMEVRGWCLESSQCQDLTTESNLLECIRACKPDLSAETPMFPGNGDEQPLTENPRKYVMGHFRWDRFGRRNSSSSGSSGAGQKREDVSAGEDCGPLPEGGPEPRSDGAKPGPREGKRSYSMEHFRWGKPVGKKRRPVKVYPNGAEDESAEAFPLEFKRELTGQRLREGDGPDGPADDGAGAQADLEHSLLVAAEKKDEGPYRMEHFRWGSPPKDKRYGGFMTSEKSQTPLVTLFKNAIIKNAYKKGE
modifications: full-length
notes: precursor of α-MSH and ACTH; 32 kDa
influence on melanogenesis via MC-1R [1]: only slightly influenced melanogenesis via MC-1R
affinity for MC-1R [2]: markedly low
